Measurements taken from the RNAGym collection of RNA variant scans (doi:10.1073/pnas.2313332121).

B1: TPR t1 (parent)
chain: GACCAAUCUGCCCUCAGAGCUCGAGAACAUCUUCGGAUGCAGAGGAGGCAGGCUUCGGUGGCGCGAUAGCGCCAACGUCCUCAACCUCCAAUGCAUCCCACCACAUGAUGAUGCCUGAAGAGCCUUGGUUUUUUG

Variants of: B1
Experiment: polymerase ribozyme fitness, log enrichment relative to wild type (log ratio); higher = more active; in vitro selection for triplet polymerase activity
Method in brief: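 A single round of triplicate in vitro selection, including frozen incubation at −7 °C, was applied to PCR-built, transcribed mutant libraries of each subunit of a heterodimeric triplet polymerase ribozyme. Illumina sequencing of input and output libraries retained genotypes with ≥10 input reads and ≥1 read per output. Fitness is the base-2 logarithm of genotype enrichment divided by wild-type enrichment, from inverse-variance-weighted replicate averages.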

Variant | polymerase ribozyme fitness (log ratio)
C3A G44A A46U C53G C115U | -6.56
C3U C11A C13G A74G | -2.98
A2U U32G G60U G69A U92A C114A U116A C124G | -6.22
C3A | -1.22
C3G | -1.58
C3U | -0.284
C3U A41C U125A U126C | -3.37
A2G C15U A37U C101G C104A | -5.07
C3G G10A U106A | -2.9
A2G C12U G17C U78C C86G | -4.66
C3G G48C C89U U132C | -1.66
A2C G77U | -2.28
A2U C94U C104U | -2.44
C3G C13U G36U G45A C72U U125A G127U U131C | -2.84
A2G C62A C104U | -0.429
C3U C64U G71U C85G A121U | -4.22
C3U C8A C73G G120C G135C | 1.56
A2U A37U U54A G69U U78G A105G | -3.36
A2U A5C | -2.09
C3U C20U | -1.7
A2G C4G G47A G48A C123A | -3.22

Variant | polymerase ribozyme fitness (log ratio)
C3G G19A C20G C88G U112G C115U | -5.61
A2G C97U G113U C114G | -3.04
A2G U9G U21C G128A | -4.35
C3G A46U | -2.71
A2U G63A C86A | -4.44
C3G C73U A90C | -3.32
A2C G71A | -2.36
A2C G71U | -2.08
A2G C22U G61A A75U | -4.04
C3A C40A G93U G110U | -3.31
C3U G39C G44A G63A G77U U78A A119G | -2.88
A2G G35C | -3.63
C3A G71C C79G A119G C123A | -1.16
A2C C56G | -1.9
C3U A50C C73A C85U G120U | -1.28
A2G C34A U55A C70G U112C | -5.23
C3U C56G A83U C85A | -3.16
A2G A91U | -1.93
C3U A16U | -2.53
A2U C8G | -0.639
A2C C49A U87A C88A | -3.11

Variant | polymerase ribozyme fitness (log ratio)
A2U A37C | -3.02
A2C C3A U9A C20U G63C G120U | -1.07
C3G G71C A90U A95U U112A | -3.23
A2C C8A G42C U54A U78A C98U G120A G127C | -2.04
A2U G36U A41U U54G | -6.42
A2G C13G C123G | 1.11
A2U C20U | -3.71
A2C G63U U129A | -2.77
C3U G17U G47A U96A U106A C115A U130G | -2.25
C3A U7G U32C G60U G93C A111C | -2.96
C3A G61U C115A | -1.78
C3U G10A G44C C49A G120U | 0.0361
A2U C72A | -2.16
C3A A5U G36C G47C A75U G77A A105G U106A C123U U130C | -2.36
C3A C12G A26U U30G G65C A121C U130C | -6.48
A2U U59C C62G C94U C123A U125G | -6.19
C3A C4G G10A G61A C123G | 0.689
C3G A29U C49A G57U A121G | -2.13
A2C C8A U131A | -1.54
C3A C8A C40G G61U A100C | -2.95
C3U C88A | -1.53

Variant | polymerase ribozyme fitness (log ratio)
C3A G52U C64U | -2.19
A2G G69A C89G G110U | -6
C3A C72U C94G | -3.51
A2U G51C G69A A121G U132C | -6.81
A2G G110A C124A | -0.428
A2G C115A | -0.495
C3A G44U | -3.37
A2G U54A G60C U106G | -2.29
C3A C79A G120U G128A | -3.06
A2C G110C | -6.21
A2U A5C C62A G93C | -5.08
C3U A90G | -0.86
A2G G93A | -0.719
C3U G45U G60U A91G C123U | -2.3
C3U C8G G48U G93U | -0.42
A2G U78A | 0.0128
A2U C104A C124U U130A | -2.07
C3U A29U | -1.77
C3U C11A G47A C72A G110U | -2.89
C3A G36C G63A U130C | -2.1
C3U G17C G61C G117U | -5.52
